Test results from paper PMC3606321, “Identification and characterization of two distinct PPP1R2 isoforms in human spermatozoa” (BMC Cell Biology, 2013).

Tests used:
[1] = biological target: purified recombinant PPP1CC1 (UniProt P36873 1-323); assay: cell-based or functional assay
[2] = biological target: purified recombinant PPP1CC2 (UniProt P36873-2 1-337); assay: cell-based or functional assay
Sequence of purified recombinant PPP1CC2 (P36873 other isoform, or with tags, fused parts or gaps): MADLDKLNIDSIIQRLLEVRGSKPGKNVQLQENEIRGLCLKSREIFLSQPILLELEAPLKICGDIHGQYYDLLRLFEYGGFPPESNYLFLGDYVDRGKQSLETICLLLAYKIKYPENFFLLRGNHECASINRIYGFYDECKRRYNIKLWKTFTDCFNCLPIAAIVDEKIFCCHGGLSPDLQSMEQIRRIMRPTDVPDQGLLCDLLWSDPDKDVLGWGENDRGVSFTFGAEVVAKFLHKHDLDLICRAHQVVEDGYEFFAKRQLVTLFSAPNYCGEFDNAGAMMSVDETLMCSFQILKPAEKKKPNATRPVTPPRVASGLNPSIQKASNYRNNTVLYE

Sequence of purified recombinant PPP1CC1 (P36873 whole entry): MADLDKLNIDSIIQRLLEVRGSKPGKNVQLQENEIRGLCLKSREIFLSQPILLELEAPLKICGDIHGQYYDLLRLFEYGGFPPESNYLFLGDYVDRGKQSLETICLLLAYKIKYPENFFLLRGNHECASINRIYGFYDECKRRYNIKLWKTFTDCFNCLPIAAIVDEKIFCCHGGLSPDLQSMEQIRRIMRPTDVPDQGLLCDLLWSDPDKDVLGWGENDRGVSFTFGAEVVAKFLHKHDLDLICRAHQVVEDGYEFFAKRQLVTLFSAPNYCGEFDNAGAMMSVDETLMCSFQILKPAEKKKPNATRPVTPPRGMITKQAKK

B1: His-PPP1R2P3 (natural protein, human, UniProt Q6NXS1 1-205, looked up)
chain: MAASTASHRPIKGILKNKTSTTSSMVASAEQPRRSVDEELSKKSQKWDEINILATYHPADKGYGLMKIDEPSPPYHSMMGDDEDACRDTETTEAMAPDILAKKLAAAEGLEPKYRIQEQESSGEEDSDLSPEEREKKRQFEMRRKLHYNEGLNIKLARQLISKDLHDDDEDEEMLETADGESMNTEESNQGSTPSDQQQNKLRSS
B1 was tested, and the “IC50 of inhibition of PPP1CC1 in the phosphorylase phosphatase assay ([32P]phosphorylase a as substrate)” value [1] was 0.73 nM and the “IC50 of inhibition of PPP1CC2 in the phosphorylase phosphatase assay ([32P]phosphorylase a as substrate)” value [2] was 0.09 nM.
